Target: bovine β-arrestin 1 (1–393) (bovine, UniProt P17870)
Assay: cryo-EM structure

bovine β-arrestin 1 (1–393), sequence (P17870 1-393): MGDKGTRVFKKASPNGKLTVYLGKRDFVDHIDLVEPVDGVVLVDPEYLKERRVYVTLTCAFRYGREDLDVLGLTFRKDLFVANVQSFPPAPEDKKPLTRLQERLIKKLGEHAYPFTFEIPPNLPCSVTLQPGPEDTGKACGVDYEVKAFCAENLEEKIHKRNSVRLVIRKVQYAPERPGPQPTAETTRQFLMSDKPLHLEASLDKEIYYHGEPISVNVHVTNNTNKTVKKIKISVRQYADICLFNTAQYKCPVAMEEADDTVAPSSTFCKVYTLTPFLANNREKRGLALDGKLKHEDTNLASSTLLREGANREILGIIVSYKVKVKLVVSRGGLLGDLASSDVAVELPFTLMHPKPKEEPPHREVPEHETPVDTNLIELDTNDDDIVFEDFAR

binding result: binds
B1: Nanobody 32 (VHH)
VHH: QVQLQESGGGLVQAGGSLRLSCVVSGFFFDTVTMAWYRRAPGKHRELVASATAGGTTTYADSVKDRFTISRDNAKNTVYLQMNSLKPEDTAVYYCNTFVRSLSWGQGTQVTVSS

— PMC7108872 (Nature structural & molecular biology, 2019)
